The test deals with TLR4 human recombinant protein (HY-P73586, MCE) (human) (UniProt O00206). The test can be described thus: SPR. A general note: SPR reads the build-up and loss of mass on a sensor chip optically.
UniProt O00206, sequence (O00206 24-631, one chain of several): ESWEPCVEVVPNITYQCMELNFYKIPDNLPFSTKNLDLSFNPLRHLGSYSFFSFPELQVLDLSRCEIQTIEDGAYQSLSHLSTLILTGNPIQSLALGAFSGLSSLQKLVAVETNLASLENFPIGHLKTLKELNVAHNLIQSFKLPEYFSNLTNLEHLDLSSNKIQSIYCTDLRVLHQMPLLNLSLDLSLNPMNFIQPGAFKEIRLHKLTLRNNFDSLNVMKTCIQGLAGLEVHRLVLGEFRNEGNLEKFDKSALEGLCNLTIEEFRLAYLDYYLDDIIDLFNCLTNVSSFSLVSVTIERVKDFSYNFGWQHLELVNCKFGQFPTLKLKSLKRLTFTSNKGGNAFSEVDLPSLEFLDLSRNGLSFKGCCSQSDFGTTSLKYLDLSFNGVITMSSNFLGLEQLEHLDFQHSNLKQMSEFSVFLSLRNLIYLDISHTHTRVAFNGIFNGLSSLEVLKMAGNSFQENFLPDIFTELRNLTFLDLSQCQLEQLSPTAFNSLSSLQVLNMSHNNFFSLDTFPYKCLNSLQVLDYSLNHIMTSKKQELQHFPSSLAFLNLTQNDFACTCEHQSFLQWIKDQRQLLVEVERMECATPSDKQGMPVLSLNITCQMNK

As a reminder, the Kd is the free concentration of one partner at which half of the binding sites on the other are occupied at equilibrium, for simple one-to-one binding. With “PBP1B without the GST tag, non-transmembrane domain (domain or fragment)”, the Kd came out at 0.269 nM.

The values above are taken from paper PMC11726454.
